Test: yeast display, Sf9 membrane polyspecificity reagent, FACS + sequencing; frameworks hold sequencing errors
Method in brief: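 Nanobodies from a synthetic yeast display library (Saccharomyces cerevisiae BJ5465), induced 36–48 hours with galactose, were stained 1 hour at 4 °C with 10% biotinylated, detergent-solubilized Sf9 membrane reagent, enriched on streptavidin microbeads, then FACS-sorted. Anti-HA (expression) and streptavidin (reagent binding) fluorescence set low and high (top ~1%) gates. Polyreactivity labels come from the gate of origin. Genes were colony-PCR amplified, MiSeq 2 × 250 sequenced and filtered by CDR length.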

Row | Sequence | polyreactivity (PSR sort gate)
1 | QVQRVESGGGFVQAGGSLRLSSAASGFTFGAYAMGWYRQAPGKEMELVASISWSGGSTYYADSVKGRFTISRVNAKNTVYLQMNSLKPEDTAVYYCNKDFVYPDDDGLFDYWGQGTQVTVSS | low polyreactivity
2 | QVQRVESGGGLFQAGGSLRLSCAASGITFRYYNMGWYRQAPGKERELVAAISSSGGSTYYADSVKGRFTISRDNAKNTVYLQMNSLKPEDTAVYYCAAESKYSTSSPRRDYWGQGTQVTVSS | high polyreactivity
3 | QVQRVESGGGLVKAGGRLRLSSAASGGTFKRYTMGWYRQAPGKETELVARIHYRTGSTYYADSVKGRFTISRDNAKNTVYLQMNSLKPEDTAVYYCAAREWYGFAFDYWGQGTQVTVSS | high polyreactivity
4 | QVQRVESGGGLVQAAGSLRLSCAASGRTFIYYAKGWYRHEPGKERELVAGISRNGGRTYYADSVKGRFTISRDNAKNTVYLQMNSLKPEDTAVYYCNAYPPSRHDYCGQGTQVTVSS | high polyreactivity
5 | QVQRVESGGGLVQAGASLRLSCAASGSTFDPYAKGWYRQAPGKERELVAAISGRGGSTYYADSVKGRFTISRDNAKNTLYLQMNSLKPEDTADYYCNAEGEYRRDRYDYWGQGTQVTVSS | low polyreactivity
6 | QVQRVESGGGLVQAGASLRLSCSASGRTFSRYAMGWYRQAPGKERELVAAIRGNSGNTYYADSVKGRFTISRDNAKNTVYLQMNSLKPEDTAVYYCAKPFNIWGQGTQVTVSS | high polyreactivity
7 | QVQRVESGGGLVQAGGRLRLTCAASARIIRWYAMGWNRQAPGKERELVAAISGSGGSTYYADSVKGRFTISRDNAKNTVYLQMNSLKPEDTAVYYCAKDRDPVRAHDCWGQGTQVTVSS | high polyreactivity
8 | QVQRVESGGGLVQAGGSLRLSCAASGFIFWRYAMGWYRQAPGKERELVATITSSGGTTHYADSVKGRFTISRDNAKNTVYLQMNSLKPEDTAVYYCAKALVVQYGRYTGHPYDYWGQGTQVTVSS | high polyreactivity
9 | QVQRVESGGGLVQAGGSLRLSCAASGFTFESYAMGWYRQAHGKERELVAAITWDGGSTYYADSVKGRFTISRDNAKNTVYLQMNSLKPEDTAVYDCAADFGTISIDVYSWMDYWGQGTQVTGSS | low polyreactivity
10 | QVQRVESGGGLVQAGGSLRLSCAASGFTFRWYAMGWYRQAPGKEREMVAAISRSGASTYYADSVKGRFTISRDNAKNTVYLQMNSLKPEDTAVYYCAVLWHGRRPLYKLRTGPEYDYWGQGTQVTVSS | high polyreactivity
11 | QVQRVESGGGLVQAGGSLRLSCAASGFTFVPYALGWYRPAPGQERELVAAISGSGGSTYYADSVKGRFTISRDNEKNTVYLQMNSLKPEDTAVYYCNADRRWAYYWGQGTQVTVSS | high polyreactivity
12 | QVQRVESGGGLVQAGGSLRLSCAASGIIFDRYAMGWYRPAPGKERELVAAISSSGGSTYYADSVKGRFTISRDNAKNTVYLQMISLKPEATAVYYCNARHRQWARGYWGQGTQVTVSS | high polyreactivity
13 | QVQRVESGGGLVQAGGSLRLSCAASGITFRGYAMGWYRQAPGKERELVAAINSRGGSTYYADSVKGRFTISRDNAKNTVYLQMNSLKPEDTAVYYCATRSFGRMDYWGQGTQVTVSS | high polyreactivity
14 | QVQRVESGGGLVQAGGSLRLSCAASGLIFVVYAMGWYRQAPGKERELVADISSGGRTSYADSVKGRFTISRDNAKNTVYLQMNSLKPEDTAVYYCNAYPVFNQYYGWRYDYWGQGTQVTVSS | low polyreactivity
15 | QVQRVESGGGLVQAGGSLRLSCAASGNTFWLNAMGWYRQAPGKERELVAAITYTDGSTYADSVKGRFTISRDNAKNTVYLQMNSLKPEDTAVYYCAARYQWDWRDYYYWGQGTQVTVSS | low polyreactivity
16 | QVQRVESGGGLVQAGGSLRLSCAASGRIFYFNAMGWYRQAPGKEWELVAVINSSGSTDYADSVKGRFTISRDNAKNTVYLQMNSLKPEDTAVYYCAAEVTPSGYGYWGQGTQVTVSS | low polyreactivity
17 | QVQRVESGGGLVQAGGSLRLSCAASGRILYWYAMGWYRQAPGKERELVAGIDWSGGSTYYADSVKGRFTISRDKAKTTVYLQMNSLKPEDTAVYYCNAAQNRGRGSHRGESTYYYSGQGTQVTVSS | low polyreactivity
18 | QVQRVESGGGLVQAGGSLRLSCAASGRTFYGYAMGWYRQAPGKDRELVASISWSTGSTHYADSVKGRFTISRVNAKNTVYVQMNSLKPEATAVYYCAAPFWRDSYVQIDYDYWGQGTQVTVSS | low polyreactivity
19 | QVQRVESGGGLVQAGGSLRLSCAASGRTFYLNAMGWYRQATGKERQLVAAINRGTRTYYADSVKGRFTISRDNAKNTVYLQMNSVKPEDTAVYYCAAVPRYYYSSSYTMDYWGQGTQVTVSS | high polyreactivity
20 | QVQRVESGGGLVQAGGSLRLSCAASGSIFFRNVMGWYRQAPGKERELVAAISSRGGSTYYADSVKGRFTISRDIAKNTVYLQMNSLKPEDTAVYYCATSHTPTYNYWGQGPQVTVSS | high polyreactivity
21 | QVQRVESGGGLVQAGGSLRLSCAASGSIFPSNTMGWYRQAPGKERELVAAISGSGTRTYYADSVKGRFTISRDNAKNTVYLQMNSLKPEDTAVYYCAADVDYWGQGTQVTVSS | low polyreactivity
22 | QVQRVESGGGLVQAGGSLRLSCAASGSIFSIYAMGWYRQAPGKETELVAAIDSGTSTTYADSVKGRFTISRDNAKNTVYLEMNSLKPEDTAVYYCAAALYSDVAAVATYGYYCGQGTQVTVSS | low polyreactivity

Row | Sequence | polyreactivity (PSR sort gate)
23 | QVQRVESGGGLVQAGGSLRLSCAASGSNFRVYVMGWYRQAPGKERELVARIRYRSGRTNYADSVKGRFTISRDNAKNTVYLQMNSLKPEDTAVYYCAARTPAYARTYGYWGQGTQVTVSS | high polyreactivity
24 | QVQRVESGGGLVQAGGSLRLSCAASGSTFGNAMGWYRQAPGKERELVAAISSRGDRTYYADSVQGRFTISRDNAKNTVYLQMNSLKPEDTAVYYCAKDGYPNKYDYWGQGTQVTVSS | high polyreactivity
25 | QVQRVESGGGLVQAGGSLRLSCAASGSTFWFNAMGWYRQAPGKERELVAAITYRGASTNYADSVKGRFTISRDNAKNTVYLQMNSLKPEDTAVYYCATRPTWRPVPDSDVSTYGYWGQGTQVTVSS | low polyreactivity
26 | QVQRVESGGGLVQAGGSLRLSCAASGYIFKYYAMGWYRHSPGKVRELVAAITGGVSTNYADSVKGRFTISRDNAKNTVYLQMNSLKPEDTAVYYCAAAITPSYTGSEYDYWGQGTQVTVSS | low polyreactivity
27 | QVQRVESGGGLVQAGGSLRLSCAASGYTSQVKDMGWYRQAPGKERELVAAISSTGDRTYYADSVKGRFTISRDNAKNTVYLQMNSLKPEDTAVYYCNADLTSYYEEDERNDDDYWGQGTQVTVSS | low polyreactivity
28 | QVQRVESGGGLVQAGGSLRLSCGASGSTFWAYVMGWYRPAPGKERELVAAMSSGGTTNYADSVKGRFTISRDNAKNTVYLQMNSLKPEDTAVYYCAAGRPGELDYWGQGTQVTVSS | low polyreactivity
29 | QVQRVESGGGLVQAGGSLRLSSAASGRIFWDNAMGGYRQEPGKERELVAAISDSVVITYYADSVKGRFTITRDNAKNTVYLQMNSLKPEDTAVYYCNVTGGPYDFTRWSEFDHWGQGTQETVSS | low polyreactivity
30 | QVQRVESGGGLVQAGGSLRLSSAASGRTSRYAMGWYRQAPGKERELVAAISRSGGSTHNADSVKGRFTISRDNAKNNVYLHMNSLKPEDTAVYSCNAQQGRYWSAKGYDYWGQGTQVTVSS | high polyreactivity
31 | QVQRVESGGGLVQAGGSLRLTCAASGITFFVYAMGCYRQAPGKERELVATINWSGASTYYADSVKGRFTISRDNAKNSVYLQMNSLKPEDTAVYYCAKDGHYPLVYLAFDYWGQGTQVTVSS | low polyreactivity
32 | QVQRVESGGGLVQAGGSLRLTCAASGLTFRTYAMGWYRQAPGKERELVAAISGTGGTTYYADSVKGRFTISRDNAKNTVYLQMNSLKPEDTAVYYCNKRWRRPYPYDYWGQGSQVTVSS | high polyreactivity
33 | QVQRVESGGGLVQAGGSLRLTCAASGSIFRSYAMGWYRQAPGKERELVAAISSSSGSTYYADSVKGRFTISRDKAKYTVYLQMNSLKPEDTAVYYCAARYRIGNNGYEYWGQGTQVTVSS | low polyreactivity
34 | QVQRVESGGGLVQAGGSLRLTCAASGYTSLWYGMGWSRQAPGKERDLVAAISSSGNTNYADSVKGRFTISRDNAKNTVYLQMNSLKPEDTAVYYCAVELKQVTPGLGYITLDYWGQGTQVTVSS | low polyreactivity
35 | QVQRVESGGGLVQAGGSLSLSCAASGRTCGVYAMGWYRQAPGKERELGASSSRSAGSTYYADSVKGRFTISRDNAKNTVYFQMNSLKTEDTAVYYCAAVYKRGMDYWGQGTQVTVSS | high polyreactivity
36 | QVQRVESGGGLVQAGRSLRLSCAASGTTFGRNAMGWYRQAPGIERELVAAINSGGGTYYADSVKGRFTISRDNAKNTVYLQMNSLKPEDTSVFYCAAARRYGNYDYWGQGTQLTVSS | low polyreactivity
37 | QVQRVESGGGLVQAVGRLRLSCAASGSTFYTYTMGWYRPARGKERELVAAITWSGGSTYYADSVKGRFTISRDNAKNTVYLQMNRLKPEDTAVYYCNADQDYQGARPSGMDYWGLGTQVTVSS | low polyreactivity
38 | QVQRVESGGGLVQEGGSLRLSCAASGRIFGYYAMGWYRQAPGKERELVAVITGNGSTYYADSVKGRFTISRDNAKNTVYLQRNSLNPEETAVYYCAARYVFVVRGRTVPRYYYWGQGTQVTVSS | high polyreactivity
39 | QVQRVESGGGVVQAGGSLRLSCAASGSTFQLYAMGWYRQAPGKERELVAGISRDGSTYYADSVKGRFTISRDNAKNTVYLQMNSLKPEDTAVYYCAAKYYGNKRDLYYWGQGTQVTVSS | low polyreactivity
40 | QVQRVESWGGLVQAGGSLRLSCAASGSTFEYNAMGWNRQAPGKEREFVAAISRTGSRTYYADSVKGRFTISRDNAKNTVYLQMNSLKPEDTAVYYCARVKSRLQVGYYYWGQGTQVTVSS | high polyreactivity
41 | QVQVLESGGGLVQAGGSLRLSCAASGSIFDFYAMGWYRQAPGKDRELVAAISYRGGSTYADSVKGRFTISRDNAKNTVYLQMNSLKPEDTAVYYCAKVPDYRFEYWGQGTQVTVSS | high polyreactivity
42 | QVQVVESGGGLDQAGGSLRLSCAASGSIFQVYSMGWYRQAPGQERALVAAITWAAGSTYADSVKGRFTISRDNAKNTVYLQLKSLKPDDTAVYYCAAYPYVGYVTSSAYDYWGQGTQVTVSS | low polyreactivity
43 | QVQVVESGGGLFQAGGSLRLSCAASGYIFRFNAMGWSRQAPGKERELVAVITSGARTYYADSVKGRFTISRDNAKNTVYFQINSLKPEDTAFYYFNAGARRYLYDYWGQGTQVTVSS | low polyreactivity

Source: the nanobody polyreactivity screen of Harvey et al. (2022)
